# Measurements: PMC11220700, “Activation and Purification of ß‐Glucocerebrosidase by Exploiting its Transporter LIMP‐2 – Implications for Novel Treatment Strategies in Gaucher's and Parkinson's Disease” (Advanced Science, 2024)
# *: point of attachment. Biotin = O=C1N[C@H]2[C@H](CS[C@H]2CCCCC(=O)*)N1
# B1: L2H5‐wt peptide (LIMP‐2‐derived helix 5 peptide) (peptide)
# peptide: Biotin-KFERQGSGSQVHFLREIIEAMLKAYQSGSGYGRKKRRQRRR-NH2
# Molecular target: imiglucerase/Cerezyme (recombinant GCase, Sanofi Genzyme), P04062
# Sequence (P04062 40-536): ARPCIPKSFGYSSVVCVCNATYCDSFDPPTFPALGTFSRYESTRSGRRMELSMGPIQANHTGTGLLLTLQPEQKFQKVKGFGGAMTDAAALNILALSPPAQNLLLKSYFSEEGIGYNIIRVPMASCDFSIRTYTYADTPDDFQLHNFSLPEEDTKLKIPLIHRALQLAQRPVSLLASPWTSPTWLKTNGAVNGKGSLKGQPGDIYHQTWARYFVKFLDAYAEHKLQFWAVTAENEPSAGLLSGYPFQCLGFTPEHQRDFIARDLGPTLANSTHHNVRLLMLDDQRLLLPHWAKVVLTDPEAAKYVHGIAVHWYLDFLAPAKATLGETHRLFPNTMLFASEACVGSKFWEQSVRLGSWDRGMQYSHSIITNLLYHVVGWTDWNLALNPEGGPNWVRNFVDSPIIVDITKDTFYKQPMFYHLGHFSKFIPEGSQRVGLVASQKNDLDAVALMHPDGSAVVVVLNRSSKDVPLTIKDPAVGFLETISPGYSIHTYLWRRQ
binder,measurement,value
B1,other,2.63 fold
